Results from article PMC9351452 (Proceedings of the National Academy of Sciences of the …, 2022).
Where two headings read alike, the source gives them in different places. Blank lines part the entries; values can stand above or below the molecule they belong to.

Key:
[1] = molecular target: T1, DCCP-R (double-cubane cluster protein reductase) (Carboxydothermus hydrogenoformans, UniProt Q3AET8); test: isothermal titration calorimetry; type: binding
T1 sequence (Q3AET8 1-245): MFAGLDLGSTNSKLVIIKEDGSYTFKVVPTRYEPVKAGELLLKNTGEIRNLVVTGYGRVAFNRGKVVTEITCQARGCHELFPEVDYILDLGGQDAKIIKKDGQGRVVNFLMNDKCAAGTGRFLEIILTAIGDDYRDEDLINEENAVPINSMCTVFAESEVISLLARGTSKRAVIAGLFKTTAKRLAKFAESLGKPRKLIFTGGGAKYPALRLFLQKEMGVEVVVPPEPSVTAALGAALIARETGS

DCCP:DCCP-R complex = molecular target: T2, DCCP:DCCP-R complex (Carboxydothermus hydrogenoformans, UniProt Q3AET8); test: isothermal titration calorimetry; type: binding; conditions: Mg2+; 50 mM Tris-HCl pH 8.0, 25 °C, anoxic; DCCP present in cell; reduced DCCP-R
T2 sequence (Q3AET8 1-245): T1 sequence (Q3AET8 1-245)
T2 sequence (Q3AET9 1-421 partner): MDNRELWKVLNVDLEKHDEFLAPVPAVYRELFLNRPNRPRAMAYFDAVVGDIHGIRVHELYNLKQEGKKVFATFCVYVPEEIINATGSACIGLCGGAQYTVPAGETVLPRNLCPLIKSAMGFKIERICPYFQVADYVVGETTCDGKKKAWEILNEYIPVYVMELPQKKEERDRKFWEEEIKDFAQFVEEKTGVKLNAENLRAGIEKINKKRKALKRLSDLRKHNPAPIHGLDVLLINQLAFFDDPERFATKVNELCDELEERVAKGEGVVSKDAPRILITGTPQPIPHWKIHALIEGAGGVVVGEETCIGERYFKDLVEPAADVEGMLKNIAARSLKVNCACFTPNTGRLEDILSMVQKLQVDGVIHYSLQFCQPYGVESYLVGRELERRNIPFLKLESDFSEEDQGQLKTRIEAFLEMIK

[2] = molecular target: double-cubane cluster protein (DCCP); test: SEC
[3] = molecular target: double-cubane cluster protein (DCCP); test: SEC; remark: listed apart in the source
[4] = molecular target: double-cubane cluster protein (DCCP); test: ITC
[5] = molecular target: double-cubane cluster protein (DCCP); test: ITC; remark: listed apart in the source
[6] = molecular target: double-cubane cluster protein reductase (DCCP-R); test: SEC
[7] = molecular target: double-cubane cluster protein reductase (DCCP-R) from Carboxydothermus hydrogenoformans (Carboxydothermus hydrogenoformans); test: SEC

Molecule: Nc1ncnc2c1ncn2[C@@H]1O[C@H](COP(=O)(O)OP(=O)(O)NP(=O)(O)O)[C@@H](O)[C@H]1O [MgADPNP, 5′-adenylyl β, γ-imidodiphosphate]
Kd [1]: 15 ± 0.5 µM
Kd (DCCP:DCCP-R complex): 7.1 ± 1.1 µM

Molecule: double-cubane cluster protein reductase (DCCP-R) from Carboxydothermus hydrogenoformans (enzyme)
stoichiometry N [7]: 2

Continued, values first:

stoichiometry N [2]: 2
stoichiometry N [3]: 2
Molecule: double-cubane cluster protein (DCCP) (enzyme)

Kd [1]: 42 ± 7 µM
Molecule: Nc1ncnc2c1ncn2[C@@H]1O[C@H](COP(=O)(O)OP(=O)(O)O)[C@@H](O)[C@H]1O [MgADP]

dH [4]: 24.7 kJ/mol
dH [5]: -132 kJ/mol
stoichiometry N [6]: 2
Molecule: double-cubane cluster protein reductase (DCCP-R) (enzyme)
